Source: patent US20220348663A1 (Y BIOLOGICS, published 2022)
Positions count from the first letter of the chain named. Blank lines part the entries; values can stand above or below the binder they belong to.

Key:
[1] = target: T1, human B7-H3 antigen (Octet) (human, UniProt Q5ZPR3 29-466, limits assumed); assay: BLI (Octet QK), antibody captured on AHC biosensor, B7-H3 antigen 30-0.24 nM, 1:1 global fit
T1 construct: Soluble antigen in the BLI assay
T1 sequence: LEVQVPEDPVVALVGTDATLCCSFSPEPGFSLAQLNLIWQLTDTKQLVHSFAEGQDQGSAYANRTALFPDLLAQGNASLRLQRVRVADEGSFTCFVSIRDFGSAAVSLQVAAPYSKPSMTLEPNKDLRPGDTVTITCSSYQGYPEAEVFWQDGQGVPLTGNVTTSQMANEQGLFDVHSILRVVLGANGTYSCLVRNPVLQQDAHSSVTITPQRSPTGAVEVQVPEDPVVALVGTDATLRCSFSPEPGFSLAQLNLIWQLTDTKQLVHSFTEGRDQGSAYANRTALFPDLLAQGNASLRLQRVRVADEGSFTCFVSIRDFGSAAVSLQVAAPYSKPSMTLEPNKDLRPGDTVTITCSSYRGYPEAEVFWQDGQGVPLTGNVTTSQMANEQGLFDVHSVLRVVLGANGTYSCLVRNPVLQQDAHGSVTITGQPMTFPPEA

[2] = target: T2, rat B7-H3 (#80380-R08H, Sino) (rat, UniProt Q7TPB4 29-244); assay: ELISA on coated Rat B7H3, OD450nm
T2 construct: Bought protein; also called rat B7-H3 antigen
T2 sequence (looked up): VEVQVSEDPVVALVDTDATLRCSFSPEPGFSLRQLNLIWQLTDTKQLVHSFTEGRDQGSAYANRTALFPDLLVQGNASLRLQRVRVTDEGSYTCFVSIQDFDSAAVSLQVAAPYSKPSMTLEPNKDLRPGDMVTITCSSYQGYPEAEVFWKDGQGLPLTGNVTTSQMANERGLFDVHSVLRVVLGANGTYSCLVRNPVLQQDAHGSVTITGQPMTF

[3] = target: T3, Mouse B7-H3 (#50973-M08H, Sino) (mouse, UniProt Q8VE98 29-244); assay: ELISA on coated Mouse B7H3, OD450nm
T3 construct: Bought protein; also called mouse B7-H3 antigen
T3 sequence (looked up): T2 sequence (looked up) with R33A, A62S, D131N, L156V, M214L

Kd [1]: 0.06 nM
B1: CD276-040F10 (antibody, V domains shown)
VH: QVQLVESGAEVKKPGASVKLSCKASGYTFSSYWMHWVRQAPGQRLEWMGEINPGNGHTNYNEKFKSRVTITVDKSASTAYMELSSLRSEDTAVYYCVADPRRPKVPTALFVYWGQGTLVTVSS
VL: DIQMTQSPSSVSASVGDRVTISCRASQGIGTWLAWYQQKPGKAPRLLIYAASSLDSGVPSRFSASGSGTDFTLTISSLQPEDFATYYCQQAINFPITFGQGTRLEIK
notes: Converted from scFv to IgG form

binding result [2]: binds
binding result [3]: binds
B2: CD276-039C05 (antibody, V domains shown)
VH: QVQLVESGAEVKKPGSSVKVSCKASGGTFSSYAISWVRQAPGQGLEWMGRIIPILGIANYAQKFQGRVTITADKSTSTAYMELSSLRSEDTAVYYCANGGDSSSWYTFDYWGQGTLITVSS
VL: DIQMTQSPSTLSASVGDKLTLTCRASQSISRWLAWYQQKPGKAPKLLIYKASYLQTGVPSRFSGSGTGTEFTLTISSLQPDDFATYYCQQYNTFPLTFAGGTKVEIK
notes: Converted from scFv to IgG form; Parent of the _LS_ light-chain variants
